Experimental data reported in the domain aggregation screens of Martell et al. (2025).

Assay: soluble fraction after stress (log2 fold change); higher = more stays soluble; pooled small domains, quantitative proteomics
Details: stress: 50 degC
Summary of the method: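 Pooled custom libraries of small protein domains were each held under stress at 50°C. The read-out, high-throughput quantitative proteomics, tracked how much of each protein stayed soluble. This is reported as a base-two log fold change used to indicate aggregation propensity. Higher values mean more protein remains in solution.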

Sequence | soluble fraction (log2)
HMRGGWESLTDREREIAVLAAEGHSNRTIASTLFISDRTVQSHVSRALRALGVDSRTGIPSLVTTATR | -0.0688
HMRGWGTVKRRTPKSGRYRASYIGPDGKRYAADHTYAAKVDADAWLSSERALITAGVWTPPTDRVT | -0.286
HMRHLSVPSQDTQQVLQRLKVELALPEGARVRSDPSDPGRRLIPFTESVPQEMIDQYPVVSINI | 0.0489
HMRIAGIDIPDNKRGEVALTYIFGIGRSSSKKILKSAGIDSDKQIGKWTDDESNLVRKLIRDEYTIEGDL | -0.412
HMRIASANAIYDELLNKRDDAKLAELKQEDINLYALYILQNGSADERAALENTQGIDVVLKEIINLQNG | -0.309
HMRIGINDRIHEIVDVLRLKKSTPFEDLFSGLVTRFDLVITFLALLEMGKLRLLRLYQTDPLAPLHVEYTG | -0.152
HMRILDFPALKTEFDQLTKDLMAKYPEDGADRVRAIIETVLGPGKKVGALQPHQAELLAEVNTSLKANL | 0.153
HMRILGIDPGTRITGYGIIDIEGNRLRHVDNGIIKTRSSDALPLRLKVIYDGLTAVLKQYSPQAV | 0.0465
HMRIQTVDYNTFISMVEDGKVDAAEIQQQENRILFSDQDQKVYKTAMVPDDDLTQRLLDAGVSTNG | 0.274
HMRISKRQLILESAAAIINEKGADYLTLDAVAQRAGISKGGLFYHFKSKDELIKELVNYANN | -0.14
HMRISLKAQVYEYLKQAIINGDLKVGEIYSEQYFADKLSISRTPVREAILQLQHENMVEVKANRGIIVK | -0.472
HMRITTKNYFKAISEVGFENLPEVLKKSHLVIEEKTNKGNDWGIYENDAEAKKVFDLAFDKLEEFIDRKED | 0.45
HMRIVQTDYRNFLSQVESGAVRSVQIDETQIRYTALDSGGKEIVYNTGKVDDPGLVNRLYDAGVEFSQVIP | 0.0657
HMRKATEVPFTAFKDSIENSHGKLSKAGLARHLADEYGMSQRNMERRINNLIDNKTIKYGNEGGLVWIG | -0.0291
HMRKDWTPGAFVEAFVNDTPATRSTILAKAVSAGLSRWAADNLLRTADNDGLMVRQGSGKRNEPFTYRRGP | -0.196
HMRKEEFIRELVLELKQNVSEQVILEQKRFYEEYILTEVRGGKTEEEVIASLSEPRLLAKSIIDAAEAGGD | -0.155
HMRKKDGEAYVLPRPLKKGDSVLIYDIDKKGTVLQPPEKGGKTALIQAGIIQTRVPVSNLRLLE | 0.383
HMRKKIIAQTLEEIRKSKGYSQKQVAAFIKVKPTTYNTYESGRTEPPAEILVRLSYLYRTPVDTLVQRDR | -2.07
HMRKMNDAVFYVEMSRPKRGYYTATYKLITRNPNSLPEHEITRRFFQMLEETIRKNPPYYLWTH | -0.328
HMRKPISQEIVDEVLKLAKNNPDWGYDRIAGVMKYLKYDVSATTVRHILDDNGIVPDPERRLR | 0.333
HMRKRLLQLVHIGKSQLGMDDETYRSLLSQQFYQNSAKNISYSELVKLVKILQQKGAKIRLPH | -1.9
HMRKVVLEEKEANYYAEPNSESELLGVLKRGIHLTVTDVKKEAGSDGWVKLVHPDGQEGWISGRARIRV | -0.0551
HMRKYKIKEELPDNIYKIIQDNPGIVQKDIYDILGREYQQNISSYIYSMDKNGVIKRDKHGNSYKLYL | -0.318
HMRLATSELVYRIRALIRDQELQPGERLGSERALAQSLGISRSDLRMALAVLEASHEVIRKIGRAGGIVVS | -3.14
HMRLHSSGEDYLKAIFILEAQHSSVRSVEVAEYMNVSKASVSHAVALLKKNGFLKMNQDYDLTER | 0.0124
HMRLIALPSVTDISIRQAEATLMSIGIKVSSIQYAPSEYKDLVLEVKYRGQSIIQGAKIPEGSSVVLVAGN | -1.56

Sequence | soluble fraction (log2)
HMRLPLYLALAQTLRQEIDAKQYKIGAHLPPEDQLVVKYGVSRHTVRQALQELKNEGLITSKAGIGTIVSS | -0.666
HMRLPQEVWEKIRAAYEAHGLSFSELAEMYGVNKSNISRRAKAEGWNQAETQRLITATVENE | 0.267
HMRLREETRKVDKTGLIQVDGRHYRVPDEYSQKDVQILMDDNSIMVYRKGDFVIELDKETSVYMPH | 0.214
HMRMETRILTADESGIRLDAFLASRLAVSRSLAASLIDDGNVTLNGTVPKKKTAVNVGDILEVAMP | -0.234
HMRMLTKRRQDLLLELLEERGSITVSEVKDMLDASESTIRRDITALDEEGKLVKVFGGAVAAR | -0.272
HMRMSRSARLFDLLHILRSHRRAVSGQALAQQLGISIRTLYRDIASLQAQGAKIEGEPGVGYMLKP | -0.947
HMRMTKQRQAVLDELTRVTDFRSAQQIFEDLHSQGHRVGLATIYRSLQGLAEDGSVDTLRSSDGESLY | -0.0884
HMRMTRQRKVILEELGKVYTHPTADEIYTMVKEKLPNISLGTVYRNLDLLAENNQVLKLETAGNIRRYD | -0.0847
HMRMYDVNEYSDEELHRILDLSSPTDSELEARILQMIQKYKYTNGGDNEKMAVFFENIYHHFFD | -1.5
HMRNAAGGIYGWMTLHQVAETVKLTEEEVIAITNLPAGIPRDVSLKNIEGVNDEELRALLEAYLEKQ | -0.151
HMRNISLSLRWHSGEWTADRLKSEVLALPGAMDMTVFEPQSQAYLRVEQGFDTKLLPAGIDVH | -0.927
HMRNNKLRRANKLKTEFENLPHIGKKRAHVLLKAFGSTENLKMTTAQALSEAAKISLKQAEEVLEAVRG | -0.0475
HMRNQIRAVITPVPNQERYTVEMTIDDDAGNLLTLQMAAPDRQQAAEFAQRFQKHPEALYHAVLSVLL | 0.0702
HMRNSFTVENTGERLDVFLTGQMPEFSRSHIQKLIASGQAWVNGVNRKGNFKLKPHDVVELEVPEPE | 0.53
HMRNSVQREWIYDYIQRQDAHLSADEIYEGLLKEGKNISLATVYRNLSILVDEYKIASVMTDSKKQVYDK | -1.23
HMRNTPQRRHAILALLSEQGEVSVDALAKRFSTSEVTIRKDLAAMESHGLLLRRYGGAVPMPQELI | -0.928
HMRPEVALSSRELEILEALATGKSNKELAQRLFISEATVKTHLIHIYQKLGVDTRTAAVTVARERKL | -1.52
HMRPEVTEHLKTADAILHGGDINRQSIVDELRQYAPLYIVRGNNDKDWAEAIPHDLTVTLGGVTFFMVHNR | -0.0555
HMRPFAMNLLEKHKADIEVWLKHPNMTNTQIKRLLEELGTSVSVSSIDRFISTSFPKLPKHT | -0.17
HMRPIWVQLADDFRHRIVSGQWPPGSKIPSVRELAAETGVNPNTVQRALGALDGEGLTATERTAGRFVTT | -0.0768
HMRPKVADIDYFDGKTFTIEDGSKHSITTSEAKKIYFYLVKNGYVDDESHVTDAYRSAATSGTLA | -0.0505
HMRPQELSSLNTNQMRLYNSLPEAFITAEAKDIADKLRYSERSLFRFLNESNLFTKTEHGSYAKKA | 0.133
HMRPQYVDLFTKLSAEEAGAITSKLKELKVEYQLADNGSTIKVPQKDAAEIRLELANEGLPA | 0.141
HMRPRQDRSEETRDRILDAVVELIAERGLAGVSHRAVADRAGVSLSATSYYFGSKAELERAALEEHYRR | -0.709
HMRPSGEAVNAAYRLLKGANPSGNEGDLIQRAQEVAAILPKLNRSSAAAFAKDAKANGLTQAETIALWKGS | 0.225
HMRPTYRTRLEVLINNPAISGRDLDFAQSLLSYYERKGRLSAGRVKWVTTLEERYSPENLAASAAK | -0.828

Sequence | soluble fraction (log2)
HMRQFEPVEGYNPYADKNELHGYEYWGAKFADSRSPEETAWIKQQIDDENEDRRFISEAGLA | -0.0012
HMRQQQISAAIKTSVNGTVDYYVRRLPERDPRGDFLEVWDDLQKVIQAAHGIQVSHDELYEYFRRLK | -0.337
HMRQQSLHSLYRDHHSWLQNWLRRQLGNTWDAADLSQDTFIKVLASSQSVAEIREPRAYLLTVGKRL | -0.17
HMRQSDIAAAFRESILRSSKGFQYLHTRDFVTALRRRGIHLSEVEANSWIAREKTYFVDSALDHSENRLWI | -1.6
HMRQSIHTALQLLTPREEEVLNLLVSGKSNKQVAEHFSLSSKTIERHRSSVMRKLDASSFAQLVRIAALR | -3.51
HMRQYPSGVFKEEGVKAVYIHAGTPFLVIAAQYKIPLARLFEWNNLLPSTEARISQVIYLERPG | -3.67
HMRRARVAGKGHFTGEDAMAVYRELEALFGETETLYLPGHRPFEAVLSKLALIGVPEKNTVPYTFAFVET | -0.433
HMRREIRLTVTEEIVLMKFLLTQIPYKNRDNFKTLLNDRQIRVNGSVVTWYNHPLKPGQEVTIGWFKM | -0.168
HMRRPRGVFNLVPGKRFGFITPDGGGEDVFAHLANVRAGHVAEDRNAVEYGIGRGPDGRDQAVDIVPMP | -0.128
HMRRQRNPEIFDQLVNKFHFTFTQTQQLKQLIKRWHMLFPGKSLKSAIQGYKSAKEILTYINDSLDVVE | 0.124
HMRRRTLRQGATGSDVHAVQRLLNVDGAGLRTDGIFGPATERAVIAYQRKHGLAVDGVVGRETWTALLG | -0.61
HMRRSDLVTQGDEILKRLQWNQQQAKDFLNQHLKASSRQQLTDEQLLNFNMLLEEQLVKSME | 0.103
HMRRSLIGPTVRERRRALGITQSRLAAEVGISASYLNLIEGDKRNIGGALLQRIAGALGLALD | -2.74
HMRRTVIVTAAHAEIRERPDANAPLVFSAEQKVSLDYQETAPGGWVKVRHRDGQSGYVRTNQI | -0.688
HMRRVGTALNRSHKVSYGESIQSIAARYNVNPTMLREYNRLKPEATITPGQILRIPPATIAS | 0.00426
HMRRVRRTRRLLQDGLLGLMQHKAVADISVKELAEAADVARATVYVHFKDPADVLHQLEQGLY | -0.0324
HMRSDHVFTSHLARRDKYISELESLSDSARDDHIQTIKEEDEYLLKYRRTRNLFGIPLNDEMKQFEPFNY | -0.131
HMRSEILNLLREKSPQPVSGQDLANHFGITRTAVWKHIQSLKKMGYGIEAYTKKGYVLVSVPN | -0.0638
HMRSGEDESFSAGLLEYPHYTRPAEFEGHRIPDILTSGDHAKVDAWRQEMSEHITRERRPDLWEMYKKK | 0.0901
HMRSHLSANLQRLRHIAGLTQKDLALAANLPRATLASLEQGEANPRLDTLLAVASALQVGLDELIAAP | -0.866
HMRSIMAVSNYRHKKILEMVYQRKSVSADELAAEFGVSKITIRRDLDTLAMDKLLERTRGGAISISD | -2.67
HMRSRHYRFSTPFLDRLIAEIDWNSDNALSIFNQKLVHFDFLKYFSAIQPGSIVEIENLNFIWTGKRLEAH | -2.55
HMRSVLSDEIYLLIRKMIFNYEILPGAKVNIDALAKKLDVSQTPVREALSRLESDGLIVKEPLKGFRATD | -0.875
HMRSVPNVAGLGMDGAAFQLGKAGFAIGTITPADDPKAVVGSIQRTEPAAGTVADRDTVVNLFQV | 0.0939
